B1: DNA primase large subunit (Homo sapiens), P49643-1 (parent)
chain: MEFSGRKWRKLRLAGDQRNASYPHCLQFYLQPPSENISLIEFENLAIDRVKLLKSVENLGVSYVKGTEQYQSKLESELRKLKFSYRENLEDEYEPRRRDHISHFILRLAYCQSEELRRWFIQQEMDLLRFRFSILPKDKIQDFLKDSQLQFEAISDEEKTLREQEIVASSPSLSGLKLGFESIYKIPFADALDLFRGRKVYLEDGFAYVPLKDIVAIILNEFRAKLSKALALTARSLPAVQSDERLQPLLNHLSHSYTGQDYSTQGNVGKISLDQIDLLSTKSFPPCMRQLHKALRENHHLRHGGRMQYGLFLKGIGLTLEQALQFWKQEFIKGKMDPDKFDKGYSYNIRHSFGKEGKRTDYTPFSCLKIILSNPPSQGDYHGCPFRHSDPELLKQKLQSYKISPGGISQILDLVKGTHYQVACQKYFEMIHNVDDCGFSLNHPNQFFCESQRILNGGKDIKKEPIQPETPQPKPSVQKTKDASSALASLNSSLEMDMEGLEDYFSEDS

The text below walks through data of IntAct's records for PubMed 20643958.

One test covers variants of B1. Conditions: with rfa2_human RPA2, P15927.
rfa2_human RPA2, P15927, sequence (P15927 whole entry): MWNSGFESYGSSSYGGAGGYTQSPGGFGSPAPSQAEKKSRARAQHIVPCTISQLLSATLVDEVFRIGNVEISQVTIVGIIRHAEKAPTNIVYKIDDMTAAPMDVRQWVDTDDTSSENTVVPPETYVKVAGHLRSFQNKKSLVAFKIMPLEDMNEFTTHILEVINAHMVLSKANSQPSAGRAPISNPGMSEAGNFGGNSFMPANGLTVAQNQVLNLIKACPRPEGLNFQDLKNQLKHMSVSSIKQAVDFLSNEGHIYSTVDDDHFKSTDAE
As to H299D, the “effect of a mutation on the interaction” value is listed as “decreasing interaction”.

R296E: the “effect of a mutation on the interaction” value is reported as “decreasing interaction”. Still for that read-out and setting: the value for R302E was “decreasing interaction”.

The next test covers variants of B1. Conditions: with rfa2_human RPA2, P15927. This is another data set of the same source.
As to R302E, the “effect of a mutation on the interaction” value is reported as “disrupting interaction”.
